{
  "source": "paper PMC6362288",
  "target": "protein G (UniProt P19909)",
  "assay": "ELISA; polystyrene wells modified with the PrG-Gra complex (PrG adsorbed on graphene, 2:1); mAb 5, 10, 15 µg/ml; unreacted mAb in the supernatant by Bradford, bound mAb by Anti-IgGk-HRP at 450 nm",
  "data": [
    {"substance": "mouse monoclonal IgG2b (mAb) (antibody)", "values": [
      {"measurement": "absorbance (Anti-IgGk-HRP) against PS modified with the PrG alone", "value": 2, "unit": "fold"}
    ]}
  ]
}
